Reference: patent publication US11124550

Target: human voltage-gated sodium channel hNav1.1 (hSCN1A) (human) (UniProt P35498)
Assay: cell-based or functional assay

Sequence of recombinant Hm1b (peptide) (P0DOC5 1-34, tags left off): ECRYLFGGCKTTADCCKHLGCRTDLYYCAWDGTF

Q: How did the EC50 for evoking sustained currents turn out when recombinant Hm1b (peptide) was run?
A: Its EC50 for evoking sustained currents is 18.5 nM.
